Test results reported in US20250206836A1 (ONA THERAPEUTICS S L, published 2025).

Experiments:
[1] = target: T1, nonhuman primate CD36 (on HEK 293 cells) (cynomolgus monkey / rhesus macaque, UniProt P16671 2-472 (human entry)); assay: FACS, HEK 293 cells transiently overexpressing CD36;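 also: antibody binding to transfected cells detected by flow cytometry with a fluorescent anti-human secondary antibody, EC50 from a four-parameter sigmoidal fit of mean fluorescence intensity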
T1 construct: also called non-human primate CD36 (cynomolgus)

[2] = target: T2, human CD36 (on HEK 293 or SCC25 cells) (human, UniProt P16671 2-472); assay: as above
T2 construct: Overexpressed transiently or stably on HEK 293 cells, or stably on SCC25 cells; also called huCD36

[3] = target: purified biotin-tagged human CD36 (human, UniProt P16671 30-439, limits assumed, biotin tag, site not stated); assay: AlphaScreen competition; competitor 1G04 on acceptor beads;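 also: streptavidin donor beads excited at 680 nm release singlet oxygen, and the light signal needs a nearby acceptor bead, with 30 min donor-bead incubation at 25 °C in the dark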
[4] = target: T2, human CD36 (on HEK 293 or SCC25 cells); assay: cell-based or functional assay
[5] = target: T2, human CD36 (on HEK 293 or SCC25 cells); assay: FACS, SCC25 cells stably overexpressing human CD36
Protocol: After transiently transfecting the HEK 293 cells with a CD36 expression construct, cells were treated with three-fold serial dilution of each candidate antibody (10 dilutions starting at 500 nM). […] After incubation with the cells, an anti-human fluorescently labelled antibody was added to the cell media, allowed to incubate further, and the unbound antibody was washed off of the cells. Subsequently, the cells were subjected to FACS analysis to determine antibody binding to the cells. The results were fitted to a sigmoidal titration curve. Using a nonlinear regression model, the EC₅₀ values for each antibody were calculated from the GeoMFI and MFI values using the log(agonist) versus response (four parameters) fitting on the data transformed according to X=Log[X] in GraphPad PRISM.

[6] = target: T3, mouse CD36 (on HEK 293 cells) (mouse, UniProt Q08857 1-472); assay: FACS, HEK 293 cells transiently overexpressing CD36;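 also: antibody binding to transfected cells detected by flow cytometry with a fluorescent anti-human secondary antibody, EC50 from a four-parameter sigmoidal fit of mean fluorescence intensity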
T3 construct: also called Murine CD36

[7] = target: T2, human CD36 (on HEK 293 or SCC25 cells); assay: cell-based or functional assay; remark: listed apart in the source
For Percent Fatty Acid Uptake Inhibition in this document: test concentration or dose not given here.

T3 sequence (Q08857 whole entry): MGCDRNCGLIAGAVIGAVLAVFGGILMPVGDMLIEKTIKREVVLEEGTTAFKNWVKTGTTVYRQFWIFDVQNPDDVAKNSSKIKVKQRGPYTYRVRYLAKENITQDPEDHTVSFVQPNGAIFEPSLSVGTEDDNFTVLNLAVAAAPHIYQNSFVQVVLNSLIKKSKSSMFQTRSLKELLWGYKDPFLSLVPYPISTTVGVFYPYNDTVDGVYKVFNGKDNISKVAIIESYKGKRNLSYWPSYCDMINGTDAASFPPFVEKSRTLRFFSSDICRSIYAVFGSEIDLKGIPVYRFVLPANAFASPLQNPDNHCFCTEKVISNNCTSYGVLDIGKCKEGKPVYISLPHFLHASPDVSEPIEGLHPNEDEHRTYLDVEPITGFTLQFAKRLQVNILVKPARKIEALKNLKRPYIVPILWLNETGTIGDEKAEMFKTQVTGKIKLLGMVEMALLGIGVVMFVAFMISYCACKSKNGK
T1 sequence (P16671 other isoform, or with tags, fused parts or gaps limits assumed): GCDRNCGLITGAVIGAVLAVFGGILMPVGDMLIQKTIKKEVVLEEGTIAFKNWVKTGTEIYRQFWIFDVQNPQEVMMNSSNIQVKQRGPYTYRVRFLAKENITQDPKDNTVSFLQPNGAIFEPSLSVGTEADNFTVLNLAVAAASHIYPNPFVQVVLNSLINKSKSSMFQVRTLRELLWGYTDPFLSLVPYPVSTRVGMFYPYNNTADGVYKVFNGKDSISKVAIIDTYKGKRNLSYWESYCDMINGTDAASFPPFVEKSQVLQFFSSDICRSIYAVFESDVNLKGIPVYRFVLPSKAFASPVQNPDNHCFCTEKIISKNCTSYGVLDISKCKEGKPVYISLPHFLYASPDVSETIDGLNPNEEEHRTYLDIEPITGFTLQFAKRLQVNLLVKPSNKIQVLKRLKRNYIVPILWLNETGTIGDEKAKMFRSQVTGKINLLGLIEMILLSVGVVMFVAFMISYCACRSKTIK
Sequence of purified biotin-tagged human CD36 (P16671 30-439 limits assumed): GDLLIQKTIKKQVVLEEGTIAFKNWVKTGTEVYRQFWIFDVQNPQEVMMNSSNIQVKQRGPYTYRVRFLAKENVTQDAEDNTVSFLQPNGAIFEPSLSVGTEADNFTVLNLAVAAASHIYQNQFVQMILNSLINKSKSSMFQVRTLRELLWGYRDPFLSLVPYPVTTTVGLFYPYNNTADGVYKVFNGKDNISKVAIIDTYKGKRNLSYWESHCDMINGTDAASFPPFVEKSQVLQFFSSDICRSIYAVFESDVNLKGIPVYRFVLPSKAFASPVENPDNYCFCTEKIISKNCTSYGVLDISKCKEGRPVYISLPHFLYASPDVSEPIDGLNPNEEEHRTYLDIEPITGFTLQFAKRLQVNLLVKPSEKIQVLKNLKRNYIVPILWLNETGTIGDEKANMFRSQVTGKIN
T2 sequence (P16671 2-472 limits assumed): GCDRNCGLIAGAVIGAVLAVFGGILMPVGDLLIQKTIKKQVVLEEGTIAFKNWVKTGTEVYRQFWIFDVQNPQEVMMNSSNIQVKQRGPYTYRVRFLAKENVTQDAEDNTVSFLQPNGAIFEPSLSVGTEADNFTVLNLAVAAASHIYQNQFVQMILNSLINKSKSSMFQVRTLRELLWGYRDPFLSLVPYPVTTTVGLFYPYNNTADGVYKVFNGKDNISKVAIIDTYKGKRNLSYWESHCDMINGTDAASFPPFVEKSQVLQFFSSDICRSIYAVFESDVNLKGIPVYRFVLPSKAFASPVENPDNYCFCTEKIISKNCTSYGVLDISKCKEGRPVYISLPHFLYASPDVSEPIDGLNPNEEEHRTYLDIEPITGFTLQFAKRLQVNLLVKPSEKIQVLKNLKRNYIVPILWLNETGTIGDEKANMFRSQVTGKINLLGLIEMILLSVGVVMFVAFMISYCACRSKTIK

Row | Binder | EC50 [1] [nM] | EC50 [2] [nM] | EC50 [3] [nM] | IC50 of fatty acid uptake inhibition (BODIPY FL C16, HEK hCD36 cells) [4] [nM] | EC50 [5] [nM] | EC50 [6] [nM] | Percent Fatty Acid Uptake Inhibition [7] [%]
1 | 21G04 (antibody, human IgG1, V domains shown, Chimeric: mouse variable regions on human IgG1 LALA (L234A/L235A)) VH: QVQLQQSGAELVKPGASVKLSCKASGYTFTSYWMHWVKQRPGQGLEWIGEIDPSDSHTNYNQKFKGKATLTVDKSSSTAYMQLSSLTSEDSAVYYCAPIYYGLDNWGQGTTLTVSS VL: ETTVTQSQKFMSTSVGDRVSVTCKASQNVGTNVAWYQQKPGQSPKALIYSASYRYSGVPDRFTGSGSGTDFTLTISNVQSEDLAEYFCQQYNSYPFTFGSGTKLEIK | 6.38 | 0.36 | 0.45 |  |  |  | 
2 | 23G04 (antibody, human IgG1, V domains shown, Chimeric: mouse variable regions on human IgG1 LALA (L234A/L235A); also called 023G04) VH: QVQLQQPGTELVKPGASVKLSCKASGYTFTSYWMHWVKQRPGQGLEWIGEIDPSDSHTNYNQKFKGKATLTVDKSSSTAYMQLSSLTSEDSAVYYCAPIYYGLDNWGQGTTLTVSS VL: DIVLTQSQKFMSTSVGDRVSVTCKASQNVGTNVAWYQQKPGQSPKALIYSASYRYSGVPDRFTGSGSGTDFTLTISNVQSEDLAEYFCQQYNSYPYTFGGGTKLEIK | 1.69 | 0.3 | 0.28 | 1 |  |  | 
3 | 22G04 (antibody, human IgG1, V domains shown, Chimeric: mouse variable regions on human IgG1 LALA (L234A/L235A)) VH: QVQLQQPGAELVKPGASVKLSCKASGYTFTSYWMHWVKQRPGQGLEWIGEIDPSDSHANYNQKFKGKATLTVDKSSSTAYMQLSSLTSEDSAVYYCAPIHYGLDNWGQGTTLTVSS VL: DIVLTQSQKFMSTSVGDRVSVTCKASQNVGTNVAWYQQKPGQSPKALIYSASYRYSGVPDRFTGSGSGTDFTLTISNVQSEDLAEYFCQQYNSYPLTFGAGTKLELK | 1.68 | 1.25 | 0.53 |  |  |  | 
4 | 24G04 (antibody, human IgG1, V domains shown, Chimeric: mouse variable regions on human IgG1 LALA (L234A/L235A)) VH: QVQLQQSGAELVKPGASVKLSCKASGYTFTSYWMHWVKQRPGQGLEWIGEIDPSDSHANYNQKFKGKATLTVDKSSSTAYMQLSSLTSEDSAVYYCAPIYYGLDNWGQGTTLTVSS VL: DIVMTQSQKFLSTSVGDRVSVTCKASQNVGTNVAWYQQKPGQSPKVLIYSASYRYSGVPDRFTGSGSGTDFTLTVSNVQSEDLAEYFCQQYNNYPLTFGAGTKLELK | 0.81 | 0.26 | 0.29 |  |  |  | 
5 | 25G04 (antibody, human IgG1, V domains shown, Chimeric: mouse variable regions on human IgG1 LALA (L234A/L235A)) VH: EVQLQQSGAELVKPGASVKLSCKASGYTFTSYWMHWVKQRPGQGLEWIGEIDPSDSHANYNQKFKGKATLTVDKSSSTAYMQLSSLTSEDSAVYYCAPIYYGLDNWGQGTTLTVSS VL: DIVLTQSQKFMSTSVGDRVSVTCKASQNVGTNVAWYQQKPGQSPKALIYSASYRYSGVPDRFTGSGSGTDFTLTISNVQPEDLAEYFCQQYNSYPLTFGGGTKLEIK | 2.19 | 0.74 | 0.29 |  |  |  | 
6 | 10G04 (antibody, human IgG1, V domains shown, Chimeric: mouse variable regions on human IgG1 LALA (L234A/L235A); also called 010G04) VH: DVQLQESGPELVKPGASVKISCKASGYTFTDYNMHWVKQSHGKSLEWIGYIYPYNGGTGYNQKFKSKATLTVDNSSSTAYMELRSLTSEDSAVYYCARDGGYDVYFDYWGQGTTLTVSS VL: DVVMTQTPLSLPVSLGDQASISCRSSQSLVHSNGNTYLHWYLQKPGQSPKLLIYKVSNRFSGVPDRFSGSGSGTDFTLKISRVEAEDLGVYYCFQGSHVPWTFGGGTKLEIK | 1.48 | 0.77 |  | 33 | 3.3 | 16 | 
7 | 12G04 (antibody, human IgG1, V domains shown, Chimeric: mouse variable regions on human IgG1 LALA (L234A/L235A); also called 012G04) VH: EVQLVESGGGLVQPGESLKLSCESNEYEFPSHDMSWVRKTPEKRLELVAAINSDGGYTYYPDTMERRFIISRDNTKKTLYLQMSSLRSEDTALYYCARHGYDYDEEGAWFAYWGQGTLVTVSA VL: ETTVTQSPASLSMAIGEKVTIRCITSTDIDDDMNWYQQKPGEPPKLLISEGNTLRPGVPSRFSSTGYGTDFVFSIENMLSEDVADYYCLQSDNLPFTFGSGTKLEIK | 0.67 | 0.31 | 0.78 | 3.9 | 0.39 | 1.2 | 43.8
8 | 17G04 (antibody, human IgG1, V domains shown, Chimeric: mouse variable regions on human IgG1 LALA (L234A/L235A)) VH: EVQLQQSGPELVKPGASVKISCKTSGYTFTEYTMHWVKQSHGKSLEWIGGIYPYNGGTAYNQKFKNKATLTVDISSNTAYMALRSLASDDSAVYYCASDYFYGDGYPWFTYWGQGTLVTVSA VL: ETTVTQSPASLSVATGEKVTIRCITSTDIDDDMNWYQQRPGEPPNLLISEGNTLRPGVPSRFSSSGYGTDFVFTIENTLSEDVADYYCLQSDNLPFTFGSGTRLEIK | 4.03 | 1.25 | 0.52 |  |  | 9.31 | 

Continued by falling EC50 [1], values first:

Row | EC50 [1] [nM] | EC50 [2] [nM] | EC50 [3] [nM] | IC50 of fatty acid uptake inhibition (BODIPY FL C16, HEK hCD36 cells) [4] [nM] | EC50 [5] [nM] | EC50 [6] [nM] | Percent Fatty Acid Uptake Inhibition [7] [%] | Binder
9 | 13.9 | 0.5 | 2.06 | 170 | 0.41 | 12 | 41.1 | 9G04 (antibody, human IgG1, V domains shown, Chimeric: mouse variable regions on human IgG1 LALA (L234A/L235A); also called 09G04; 009G04) VH: QVQLQQSGAELVRPGASVTLSCKASGYTFTDYEMHWVKQTPVHGLEWIGTVDPETGGTAFNQKFKDKASLTADKSSSTVYMELRSLTSEDSAVYYCSRGYGNYGAWFAYWGQGTLVTVSA VL: ETTVTQSPASLSVATGEKVTIRCITSTDIDDDMNWYQQKPGEPPKLLISEGNTLRPGVPSRFSSSGYGTDFVFTIENMLSEDVADYYCLQSDNLPFTFGSGTKLEIK
10 | 6.6 |  | 15.6 | 2.6 |  | 14.7 |  | 18G04 (antibody, human IgG1, V domains shown, Chimeric: mouse variable regions on human IgG1 LALA (L234A/L235A); also called 018G04) VH: EVQLQQSGPELVKPGASVKISCETSGHTFTEYTMHWVKQSHGKSLEWIGGIYPNNGATKYNQKFKGKATLTVDKSSSTAYMELRSLTSEDSAVYYCARDRYDVWFAYWGQGTLVTVSA VL: ETTVTQSPASLSMAIGEKVTIRCITSTDIDDDMNWYQQKPGEPPKLLISEGNTLRPGVPSRFSSSGYGTDFVFTIENLLSEDVADYYCLQSDNLPLTFGGGTKLEIK
11 | 6.52 | 0.94 | 1.46 | 42 | 1.88 | 5.14 |  | 32G04 (antibody, human IgG1, V domains shown, Chimeric: mouse variable regions on human IgG1 LALA (L234A/L235A); also called 032G04) VH: EEKLEESGGGLVQPGGSMKLSCVASGFTFSNYWMNWVRQSPEKGLEWVAEIRLKSNNYATHYAESVKGRFTISRDDSKSSVYLQMNNLRAEDTGIYYCTPLLLRWGQGTTLTVSS VL: ENVLTQSPAIMSASPGEKVTMTCRASSSLSSTYLHWYQQKSGASPKLWIYSTSNLASGVPARFSGSGSGTSYSLTISSVEAEDAATYYCQQYSGYPLTFGSGTKLEIK
12 | 2.43 |  | 0.02 | > 1000 |  | 5.03 |  | 5G04 (antibody, human IgG1, V domains shown, Chimeric: mouse variable regions on human IgG1 LALA (L234A/L235A); also called 05G04; 005G04) VH: QVQLQQSGAELVMPGASVKMSCKASGYTFTDYWMHWVKQRPGQGLEWIGAIDTSDSYTSYNQKFKGKATLTVDESSSTAYMQLSSLTSEDSAVYYCARDYYGSSTAWFAYWGQGTLVTVSA VL: ETTVTQSPASLSMAIGEKVTIRCITSTDIDDDMNWYQQKPGEPPKLLISEGNTLRPGVPSRFSSSGYGTDFVFTIDNMLSEDVADYYCLQSDNLPFTFGSGTKLEIK
